# B1: recombinant CARM1 used in the in vitro methylation assays (protein)
# chain: MAAAAAAVGPGAGGAGSAVPGGAGPCATVSVFPGARLLTIGDANGEIQRHAEQQALRLEVRAGPDSAGIALYSHEDVCVFKCSVSRETECSRVGKQSFIITLGCNSVLIQFATPNDFCSFYNILKTCRGHTLERSVFSERTEESSAVQYFQFYGYLSQQQNMMQDYVRTGTYQRAILQNHTDFKDKIVLDVGCGSGILSFFAAQAGARKIYAVEASTMAQHAEVLVKSNNLTDRIVVIPGKVEEVSLPEQVDIIISEPMGYMLFNERMLESYLHAKKYLKPSGNMFPTIGDVHLAPFTDEQLYMEQFTKANFWYQPSFHGVDLSALRGAAVDEYFRQPVVDTFDIRILMAKSVKYTVNFLEAKEGDLHRIEIPFKFHMLHSGLVHGLAFWFDVAFIGSIMTVWLSTAPTEPLTHWYQVRCLFQSPLFAKAGDTLSGTCLLIANKRQSYDISIVAQVDQTGSKSSNLLDLKNPFFRYTGTTPSPPPGSHYTSPSENMWNTGSTYNLSSGMAVAGMPTAYDLSSVIASGSSVGHNNLIPLANTGIVNHTHSRMGSIMSTGIVQGSSGAQGSGGGSTSAHYAVNSQFTMGGPAISMASPMSIPTNTMHYGS
# Tests used:
# [1] = target: GST-PKM1 recombinant protein, P14618
# [2] = target: GST-PKM2 recombinant protein, P14618
# Sequence of GST-PKM2 recombinant protein, P14618 (P14618 whole entry, looked up): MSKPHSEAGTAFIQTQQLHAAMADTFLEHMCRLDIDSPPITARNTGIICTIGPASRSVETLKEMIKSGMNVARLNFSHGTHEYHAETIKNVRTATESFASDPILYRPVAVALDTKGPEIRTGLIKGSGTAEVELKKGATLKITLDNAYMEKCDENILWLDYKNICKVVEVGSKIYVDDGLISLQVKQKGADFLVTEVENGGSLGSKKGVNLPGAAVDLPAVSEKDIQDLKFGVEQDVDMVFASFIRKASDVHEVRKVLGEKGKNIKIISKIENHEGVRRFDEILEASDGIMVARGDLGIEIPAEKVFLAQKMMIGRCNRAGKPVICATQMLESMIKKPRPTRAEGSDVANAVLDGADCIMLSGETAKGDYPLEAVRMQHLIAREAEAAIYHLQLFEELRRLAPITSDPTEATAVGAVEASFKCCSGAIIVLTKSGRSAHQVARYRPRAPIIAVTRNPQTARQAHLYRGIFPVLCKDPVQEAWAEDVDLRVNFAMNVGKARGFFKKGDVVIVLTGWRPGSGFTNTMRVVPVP
# Sequence of GST-PKM1 recombinant protein, P14618 (P14618 other isoform, or with tags, fused parts or gaps): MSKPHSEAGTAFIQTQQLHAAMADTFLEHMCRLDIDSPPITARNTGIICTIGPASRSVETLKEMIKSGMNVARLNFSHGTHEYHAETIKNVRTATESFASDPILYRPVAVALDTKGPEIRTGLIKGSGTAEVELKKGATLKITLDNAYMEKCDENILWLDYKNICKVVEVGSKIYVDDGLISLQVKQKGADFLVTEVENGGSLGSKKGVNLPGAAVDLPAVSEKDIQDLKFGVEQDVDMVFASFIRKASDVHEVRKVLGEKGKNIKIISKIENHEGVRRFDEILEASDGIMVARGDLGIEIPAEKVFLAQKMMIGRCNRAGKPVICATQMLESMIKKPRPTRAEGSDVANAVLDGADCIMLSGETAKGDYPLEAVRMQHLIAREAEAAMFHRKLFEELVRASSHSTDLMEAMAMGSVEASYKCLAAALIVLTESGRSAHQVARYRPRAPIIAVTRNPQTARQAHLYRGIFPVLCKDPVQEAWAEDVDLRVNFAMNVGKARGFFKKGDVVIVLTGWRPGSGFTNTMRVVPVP
protein,measurement,setting,value
B1,"in vitro methylation assay (3H-SAM, autoradiography)",[1],"only PKM2, but not PKM1, can be methylated by CARM1 in in vitro methylation assays"
same,"in vitro methylation assay (3H-SAM, autoradiography)",[2],"only PKM2, but not PKM1, can be methylated by CARM1 in in vitro methylation assays"
